These results are taken from paper PMC10057511.

The assay concerns the target AP2α/σ2 hemicomplex, both subunits fused to the Venus C-terminal fragment and V5 (UniProt O94973). The experiment in a line: split reporter (BiFC, NanoBiT); HEK293 cells co-transfected with AP2α-Venus-C-V5, AP2σ2-Venus-C-V5 and Nef-HA-Venus-N (400 ng each); fixed the next day in 2% PFA; Venus fluorescence (FITC channel) read by flow cytometry as MFI. In general terms: In flow cytometry, cells or beads pass a laser one at a time.
Chain of UniProt O94973 (O94973 whole entry, chain 1 of 2, the tested form may be a part): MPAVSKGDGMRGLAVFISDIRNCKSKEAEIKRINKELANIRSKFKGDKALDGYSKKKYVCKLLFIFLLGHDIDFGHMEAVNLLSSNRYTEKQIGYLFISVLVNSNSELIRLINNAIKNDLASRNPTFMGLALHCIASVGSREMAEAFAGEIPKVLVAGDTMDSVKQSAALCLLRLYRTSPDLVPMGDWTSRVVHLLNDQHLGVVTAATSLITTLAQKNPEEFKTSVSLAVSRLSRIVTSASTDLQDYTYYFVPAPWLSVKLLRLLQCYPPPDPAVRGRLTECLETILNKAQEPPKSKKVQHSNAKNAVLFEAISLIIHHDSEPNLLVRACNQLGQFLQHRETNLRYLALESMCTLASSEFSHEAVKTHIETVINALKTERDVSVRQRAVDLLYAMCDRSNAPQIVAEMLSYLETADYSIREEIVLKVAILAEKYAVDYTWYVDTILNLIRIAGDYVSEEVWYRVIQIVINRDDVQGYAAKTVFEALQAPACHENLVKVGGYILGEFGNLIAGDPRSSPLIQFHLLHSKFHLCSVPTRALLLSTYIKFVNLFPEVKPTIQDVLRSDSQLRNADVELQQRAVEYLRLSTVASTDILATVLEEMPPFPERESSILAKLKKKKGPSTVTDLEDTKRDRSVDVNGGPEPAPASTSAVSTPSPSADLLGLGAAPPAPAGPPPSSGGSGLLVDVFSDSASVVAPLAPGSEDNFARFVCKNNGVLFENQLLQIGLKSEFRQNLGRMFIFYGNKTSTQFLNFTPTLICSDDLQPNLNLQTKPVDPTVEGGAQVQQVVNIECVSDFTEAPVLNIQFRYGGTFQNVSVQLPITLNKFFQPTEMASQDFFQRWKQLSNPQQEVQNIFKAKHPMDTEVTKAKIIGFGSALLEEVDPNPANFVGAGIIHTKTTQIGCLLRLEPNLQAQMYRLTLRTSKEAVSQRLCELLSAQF
Chain of UniProt O94973 (P53680 whole entry, chain 2 of 2, further chain, the tested form may be a part): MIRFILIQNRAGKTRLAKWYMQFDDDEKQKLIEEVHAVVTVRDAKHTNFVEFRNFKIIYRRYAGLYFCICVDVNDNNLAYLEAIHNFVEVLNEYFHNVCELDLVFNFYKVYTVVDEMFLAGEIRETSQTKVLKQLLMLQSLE

In turn, “Nef protein from the LAI isolate lacking the leucine-based sorting motif (LL/AA) fused to HA and the N-terminal fragment of Venus (from UniProt P03406 1-206) (natural protein)” yielded a decrease of BiFC fluorescence against Nef^LAI of 50%.
